Experimental data from patent US20180177842A1 (CANIMGUIDE THERAPEUTICS, published 2018).

T1: P3028 (VFDEFKPLVEEPQNLIK, SEQ ID NO: 185), His-tagged (human)
T1 construct: Synthetic fragment of human serum albumin (positions 397-413); used in solution as His-tagged peptide PGE73; also called PGE73; not shown: His-tag
T1 peptide: VFDEFKPLVEEPQNLIK


Target: T1, P3028 (VFDEFKPLVEEPQNLIK, SEQ ID NO: …)
Assay: PEPSCAN ELISA; peptide on chip, His-P3028 added;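 further: peroxidase color development with ABTS and H2O2 substrate, OD405 imaged by CCD camera with image processing and taken as raw values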
Protocol: After washing, the peroxidase substrate 2,2′-azine-di-3-ethylbenzthiazoline sulfonate (ABTS) and 2 μL of 3% H2O2 were added. The binding capacity of the mAb was measured as a color development at 405 nm (optical density, OD405). The color development was quantified with a charge-coupled device (CCD)—camera and an image processing system.
The OD405-values obtained by a CCD-camera was considered as raw data values (“rampo values,” “rampo units,” or “rampo scores”). […] First the CCD-camera made a picture of the card before peroxidase coloring and then again a picture after the peroxidase coloring. […] These values were copied into an excel file and labeled as a raw data file. […] Sometimes a well can contain an air-bubble resulting in a false-positive value. If manual inspection of the cards detect an air-bubble the value are set to 0 for well.
For KKLDTFFVKLSLPTER [KKLDTFFVKLSLPTER (SEQ ID NO: 369)], the “RAMPO Score” value was 696 rampo units. In the case of KKLDTFFVKLWLFTER [KKLDTFFVKLWLFTER (SEQ ID NO: 472)], the “RAMPO Score” value is reported as 324 rampo units. For KKLDTGFVKLSLFTER [KKLDTGFVKLSLFTER (SEQ ID NO: 446)], the “RAMPO Score” value was 347 rampo units. For KKLDTRFVKLSLFTER [KKLDTRFVKLSLFTER (SEQ ID NO: 486)], the “RAMPO Score” value was 309 rampo units. KKLDTFFVKLSLYTER [KKLDTFFVKLSLYTER (SEQ ID NO: 503)] was tested, and the “RAMPO Score” value was 291 rampo units. With KKLDTFFVVLSLFTER [KKLDTFFVVLSLFTER (SEQ ID NO: 523)] the “RAMPO Score” value was 248 rampo units. With KKLDTFQVKLSLFTER [KKLDTFQVKLSLFTER (SEQ ID NO: 322)] the “RAMPO Score” value was 511 rampo units. In the case of KKLDTFFVKLSRFTER [KKLDTFFVKLSRFTER (SEQ ID NO: 356)], the “RAMPO Score” value is reported as 483 rampo units. KKLDTFFVKVSLFTER [KKLDTFFVKVSLFTER (SEQ ID NO: 343)] was tested, and the “RAMPO Score” value was 658 rampo units. With KKLDTKFVKLSLFTER [KKLDTKFVKLSLFTER (SEQ ID NO: 460)] the “RAMPO Score” value was 337 rampo units. With KKLDTFFVKLVLFTER [KKLDTFFVKLVLFTER (SEQ ID NO: 419)] the “RAMPO Score” value was 392 rampo units. KKLDTFFVRLSLFTER [KKLDTFFVRLSLFTER (SEQ ID NO: 331)] was tested, and the “RAMPO Score” value was 374 rampo units. For KKLDTFFVKRSLFTER [KKLDTFFVKRSLFTER (SEQ ID NO: 340)], the “RAMPO Score” value was 439 rampo units. In the case of KKLDTFIVKLSLFTER [KKLDTFIVKLSLFTER (SEQ ID NO: 397)], the “RAMPO Score” value is reported as 446 rampo units. With KKLDTLFVKLSLFTER [KKLDTLFVKLSLFTER (SEQ ID NO: 411)] the “RAMPO Score” value was 408 rampo units. For KKLDTFMVKLSLFTER [KKLDTFMVKLSLFTER (SEQ ID NO: 321)], the “RAMPO Score” value was 712 rampo units. KKLDTFFVKSSLFTER [KKLDTFFVKSSLFTER (SEQ ID NO: 341)] was tested, and the “RAMPO Score” value was 351 rampo units. With KKLDTFFVKWSLFTER [KKLDTFFVKWSLFTER (SEQ ID NO: 482)] the “RAMPO Score” value was 316 rampo units. In the case of KKLDTFFVKLSTFTER [KKLDTFFVKLSTFTER (SEQ ID NO: 358)], the “RAMPO Score” value is reported as 437 rampo units. For KKLDTNFVKLSLFTER [KKLDTNFVKLSLFTER (SEQ ID NO: 316)], the “RAMPO Score” value was 446 rampo units. With KKLDTFFVKLSPFTER [KKLDTFFVKLSPFTER (SEQ ID NO: 497)] the “RAMPO Score” value was 297 rampo units. In the case of KKLDTFFVTLSLFTER [KKLDTFFVTLSLFTER (SEQ ID NO: 445)], the “RAMPO Score” value is reported as 347 rampo units. With KKLDTFFVKLSLQTER [KKLDTFFVKLSLQTER (SEQ ID NO: 370)] the “RAMPO Score” value was 1140 rampo units. In the case of KKLDTFFVKYSLFTER [KKLDTFFVKYSLFTER (SEQ ID NO: 344)], the “RAMPO Score” value is reported as 382 rampo units. With KKLDTSFVKLSLFTER [KKLDTSFVKLSLFTER (SEQ ID NO: 401)] the “RAMPO Score” value was 432 rampo units. In the case of KKLDTFFVKPSLFTER [KKLDTFFVKPSLFTER (SEQ ID NO: 338)], the “RAMPO Score” value is reported as 436 rampo units. With KKLDTFLVKLSLFTER [KKLDTFLVKLSLFTER (SEQ ID NO: 320)] the “RAMPO Score” value was 517 rampo units. KKLDTFFVKLSNFTER [KKLDTFFVKLSNFTER (SEQ ID NO: 354)] was tested, and the “RAMPO Score” value was 462 rampo units. For KKLDTFFVMLSLFTER [KKLDTFFVMLSLFTER (SEQ ID NO: 509)], the “RAMPO Score” value was 283 rampo units. With KKLDTFFVKLSQFTER [KKLDTFFVKLSQFTER (SEQ ID NO: 355)] the “RAMPO Score” value was 651 rampo units. For KKLDTFFVKLSLRTER [KKLDTFFVKLSLRTER (SEQ ID NO: 371)], the “RAMPO Score” value was 502 rampo units. KKLDTFFVQLSLFTER [KKLDTFFVQLSLFTER (SEQ ID NO: 469)] was tested, and the “RAMPO Score” value was 330 rampo units. With KKLDTFFVKLSLWTER [KKLDTFFVKLSLWTER (SEQ ID NO: 375)] the “RAMPO Score” value was 430 rampo units. In the case of KKLDTFFVKNSLFTER [KKLDTFFVKNSLFTER (SEQ ID NO: 337)], the “RAMPO Score” value is reported as 365 rampo units. KKLDTFFVKLSWFTER [KKLDTFFVKLSWFTER (SEQ ID NO: 360)] was tested, and the “RAMPO Score” value was 409 rampo units. With KKLDTFFVKLTLFTER [KKLDTFFVKLTLFTER (SEQ ID NO: 349)] the “RAMPO Score” value was 520 rampo units. KKLDTFYVKLSLFTER [KKLDTFYVKLSLFTER (SEQ ID NO: 463)] was tested, and the “RAMPO Score” value was 334 rampo units. KKLDTFFVKQSLFTER [KKLDTFFVKQSLFTER (SEQ ID NO: 339)] was tested, and the “RAMPO Score” value was 470 rampo units. In the case of KKLDTFFVKLSLSTER [KKLDTFFVKLSLSTER (SEQ ID NO: 372)], the “RAMPO Score” value is reported as 635 rampo units. In the case of KKLDTPFVKLSLFTER [KKLDTPFVKLSLFTER (SEQ ID NO: 317)], the “RAMPO Score” value is reported as 497 rampo units. For KKLDTFFVKLSYFTER [KKLDTFFVKLSYFTER (SEQ ID NO: 475)], the “RAMPO Score” value was 320 rampo units. In the case of KKLDTFFVNLSLFTER (also called 31136) [KKLDTFFVNLSLFTER (SEQ ID NO: 518)], the “RAMPO Score” value is reported as 256 rampo units. With KKLDTFWVKLSLFTER [KKLDTFWVKLSLFTER (SEQ ID NO: 425)] the “RAMPO Score” value was 380 rampo units. For KKLDTFFVKLSSFTER [KKLDTFFVKLSSFTER (SEQ ID NO: 357)], the “RAMPO Score” value was 478 rampo units. In the case of KKLDTFFVKMSLFTER [KKLDTFFVKMSLFTER (SEQ ID NO: 336)], the “RAMPO Score” value is reported as 460 rampo units. With KKLDTFPVKLSLFTER [KKLDTFPVKLSLFTER (SEQ ID NO: 437)] the “RAMPO Score” value was 356 rampo units. In the case of KKLDTQFVKLSLFTER [KKLDTQFVKLSLFTER (SEQ ID NO: 410)], the “RAMPO Score” value is reported as 410 rampo units. KKLDTFFVWLSLFTER [KKLDTFFVWLSLFTER (SEQ ID NO: 526)] was tested, and the “RAMPO Score” value was 245 rampo units. With KKLDTMFVKLSLFTER [KKLDTMFVKLSLFTER (SEQ ID NO: 315)] the “RAMPO Score” value was 467 rampo units. For KKLDTFFVKLSVFTER [KKLDTFFVKLSVFTER (SEQ ID NO: 359)], the “RAMPO Score” value was 545 rampo units. For KKLDTHFVKLSLFTER [KKLDTHFVKLSLFTER (SEQ ID NO: 466)], the “RAMPO Score” value was 332 rampo units. With KKLDTFHVKLSLFTER [KKLDTFHVKLSLFTER (SEQ ID NO: 433)] the “RAMPO Score” value was 364 rampo units. For KKLDTFGVKLSLFTER [KKLDTFGVKLSLFTER (SEQ ID NO: 96)], the “RAMPO Score” value was 347 rampo units. For KKLDTFTVKLSLFTER [KKLDTFTVKLSLFTER (SEQ ID NO: 324)], the “RAMPO Score” value was 517 rampo units. KKLDTFVVKLSLFTER [KKLDTFVVKLSLFTER (SEQ ID NO: 325)] was tested, and the “RAMPO Score” value was 527 rampo units. KKLDTFRVKLSLFTER [KKLDTFRVKLSLFTER (SEQ ID NO: 432)] was tested, and the “RAMPO Score” value was 369 rampo units. With KKLDTFFVKLSLVTER [KKLDTFFVKLSLVTER (SEQ ID NO: 374)] the “RAMPO Score” value was 446 rampo units. For KKLDTFFVKLSLTTER [KKLDTFFVKLSLTTER (SEQ ID NO: 373)], the “RAMPO Score” value was 494 rampo units. For KKLDTFFVKLYLFTER [KKLDTFFVKLYLFTER (SEQ ID NO: 415)], the “RAMPO Score” value was 402 rampo units. With KKLDTIFVKLSLFTER [KKLDTIFVKLSLFTER (SEQ ID NO: 314)] the “RAMPO Score” value was 466 rampo units. In the case of KKLDTFFVKTSLFTER [KKLDTFFVKTSLFTER (SEQ ID NO: 342)], the “RAMPO Score” value is reported as 399 rampo units. In the case of KKLDTFFVKLSMFTER [KKLDTFFVKLSMFTER (SEQ ID NO: 353)], the “RAMPO Score” value is reported as 499 rampo units. KKLDTFSVKLSLFTER [KKLDTFSVKLSLFTER (SEQ ID NO: 323)] was tested, and the “RAMPO Score” value was 700 rampo units. KKLDTFNVKLSLFTER [KKLDTFNVKLSLFTER (SEQ ID NO: 443)] was tested, and the “RAMPO Score” value was 348 rampo units. KKLDTFFVSLSLFTER [KKLDTFFVSLSLFTER (SEQ ID NO: 511)] was tested, and the “RAMPO Score” value was 274 rampo units.
